These results are taken from PMC3052529.

By stoichiometry N is commonly meant the number of molecules, sites or subunits per partner or assembly. As usually defined, the IC50 is the concentration that gives 50% inhibition.

“And” between values parts separate entries of the source, which are not always exact repeats. Equal entries are not always repeated. Where two headings read alike, the source gives them in different places.

Test [1] addresses HCV core169 (first 169 residues of HCV core protein, domains D1+D2) (hepatitis C virus H77 genotype 1a). Put plainly: cross-linking.
Test [2] deals with HCV core106 (first N-terminal 106 residues of HCV core protein) (hepatitis C virus (strain not stated)). Put plainly: cross-linking.
Test [3] has as its target Flag-core106 (hepatitis C virus (strain not stated)). Put plainly: AlphaScreen or HTRF. In general terms: Bead proximity is the source of the signal in Alpha formats.
The target in test [4] is Flag-core169 (hepatitis C virus H77 genotype 1a). Put plainly: AlphaScreen or HTRF.
Test [5] concerns the target Flag-core106 (hepatitis C virus (strain not stated)). Put plainly: AlphaScreen or HTRF. The source holds these as a separate data set.

Turning to “HCV core169 (first 169 residues of HCV core protein, domains D1+D2) (domain or fragment)”, in test [1], the stoichiometry N is 2 and 3.
In turn, “HCV core106 (first N-terminal 106 residues of HCV core protein) (domain or fragment)” had a stoichiometry N in test [2] of 2. Besides, the 50% inhibitory concentration (IC50) in test [3] is 344 nM; in test [4] it was 870 nM; in test [5], 220 nM.
